Experimental data: the nanobody polyreactivity screen of Harvey et al. (2022)

Experiment: yeast display, Sf9 membrane polyspecificity reagent, FACS + sequencing; frameworks hold sequencing errors
Procedure, shortened: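 A synthetic nanobody library was expressed on Saccharomyces cerevisiae BJ5465 by galactose induction for 36–48 hours. The library was stained for 1 hour at 4 °C with 10% biotinylated, detergent-solubilized Sf9 membrane reagent and enriched with streptavidin microbeads before FACS. Low and high (top ~1%) gates were set on anti-HA fluorescence for expression and streptavidin fluorescence for reagent binding, and each polyreactivity label reflects the gate of origin.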

Sequence	polyreactivity (PSR sort gate)
QVQLVESGGGLVQAGGSLRLSCAASGSIFQINVMGWYRQAPGKERELVAASYADSVKGRFTISRDNAKNTVYLQMNSLKPEDTAVYYCARSNPAYSIYDYWGQGTQVTVSS	low polyreactivity
QDQLVESCGGLVQAGGSLRISCAASGRIFLPTAMGGYRQAPGKERELVAAINSSDASTDFADSVQGRFTISRDHAKTTVYLQRNSLKPEDTAVYYCAAENDTSDAVRYDYWGQGTQVTVSS	low polyreactivity
QVQLQESGGGLVQAGGSLRLSCAASGYISLAQTIGWYRQAQGKEREFVASIALGSSTYYTDSVKGSFTISRDNAKTTVYLQMNSLKPEDTAVYYCAARVGASYAHDYWGQGTQVTLSS	low polyreactivity
QVQLVESGGGLVQAGGSLRLSCAASGGTFQRYVMGWYRQAPGKERELVAAISRSGSTYADSVKGRFTISRDNAKNTVYLQMNSLKPEDTAVYYCNVVRYYRYYLHGYDYWGQGTQVTVSS	high polyreactivity
QVQLVESGVGLVQAGGSLRLSCAASGSTFRYYGMGWYRQAPGKEMELVAAISSSGGSTYYADSLKGRFTISRDNAKNTVSLQMNSLKPEDTAVYYCAAGSRFVSSRLYYWGQGTQVTVSS	high polyreactivity
QVQIVESGGGLVQAGGSLRLSCAASGSTSTLNAMGWYRQAPGTERELVAAISRSGTSTYFADSVKGRFTISRDNAKNTVYLQMNSLKPEDTADYYCAAYSYGPPYYYWGQGTQVTVSS	high polyreactivity
QVQLVESGGGLVQAGGSLRLSCAASGSIFYVNAMGWYRQAPGKERELVAAISVRGGRTYYADSVKGRFTISRDNAKNTVYLQMNSLKPEDTAVYYCATRISTVGRYDYWGQGTQVTVSS	high polyreactivity
QVQLVESGGGLVQAGGSLRLSCAASGSTFRPNAMGWYRQAPGKERELVAAINRGGRTNYADSVKGRFTISRDNAKNTVYLQMISLKPEDTAVYYCAAYIAGRYGARGYDYWGQGTQVTVSS	high polyreactivity
QVQLVESGGGLVQAGGSLRLICAASGRTFNRYAMGWYRTAPRTERELVAVINSASSTNYADSVKGRFTISRDNAKNTVYLQMYSLKPEDTAVYYCNADGYRWYWYTGPMDYWGQGTKVTVSS	high polyreactivity
QVQLVESGGGLVQAGGSLRLSCAATGRTFYPYVMGWYRQAAGKERDLVASITDSGGNTYYADSVKGRFTISRDHAKNTVYLQMNSLKPEDTAVYYCNASFYYPSRRGTFQYNYWGHGTQVTVSS	low polyreactivity
QVQLVESGGGLVQAGGSLRLSCAASGLIFGKNAMGWYRQAPGKERELVAAISSGDSTYADSVKGRFTISRDNAKNTVYLQMNSLKPEDTAVYYCNAEVLRESYDRHPTTDYYWGQGTQVTVSS	low polyreactivity
QVQLQESGDGLVQAVGSLRLSCAASGYISGYYYMGWYRQAPGKERELVAGIDAFGSSTNYADCVKGRFTIRRDNAKNTVYLLMNSPKPEDTAVFYCAAEFDDWDYHWYWGQGTQVTVSS	low polyreactivity
QVQLVESGGGLVQAGGSLRLSCAASGLIFVGYAMGWYRQAPGKERELVAAITSGGSTKYADSVKGRFTISRDNAKNTVYLQMNSLKAEDTAVYYCAASGWRNWWSARNYYWGQGTQVTVSS	low polyreactivity
QVQLVESGGGLVQAGGSLRLSCAASGSIFIQYAMGWYRQAPGKERELVAAINSSGGRTYYADSVKGRFTISRDNAKNTVYLQMNRLKPEDTAVYYCAADHGSSFDWGQGTQVTVSS	low polyreactivity
QVQLVESGGGLVQAGGSLRLSCAASGRIFKSYVMGWYRQATGKERELVAAITRTGGSTYYADSVKGRFTISRDNAKNTVYLQMNSLKPVDTAVYYCNARYSWPRATWYDYWGQGTQVTVSS	high polyreactivity
QVQLLESGGGLVQAGGSLRLSCAASGIIFVRYVMGWYRQAPVKERELVAAINWSGGSTYYADSVKGRFTISRDNAKNTVYLQMNSLKPEDTAVYYCAAGSARDDDYWGQGTQVTVSS	high polyreactivity
QVQLVESGGGLFQAGGSLRLSCAASATTFGVNAMGLYRQATGKERELVAAITVSAGSTYYADSVKGRFTISRDNAQNTVYLQMNSMKPEDSAVYYCAAEEREWRTDIYDYWGQGTQVTVSS	low polyreactivity
QVQLVESGGGLVQAGGRLRLSFAASGFTFRYYAMGWYRQAPGKEREFVAAIRSSGTTTSYADSVKGRFTISRDNAKNTVYLHMKSLKPEDTAVYYCAKVSSSSYVEHRYGYWGQGTQVTVSS	high polyreactivity
QVQLVEARGGLVQAGGSLRLSCAASGSILRYTMGWYRPAPGKERELVAAITRSGTSTYYADSVKGRFTISRDNAKNTVYLQMNSLKPEDTAVYYCAAREKYASHEYDYWGQGTQVTVSS	high polyreactivity
QVQLVESGGGLVQAGGSLRVSCASSGFTFVYYAMVWYRQAPGKERELVATISGNGGRTYYADSVKGRFTISRDNAKNTVYLLMHSLKPEDTAVYYSAALLYIRSVGDDYWGQGTKVTVSS	low polyreactivity
QVQLVESGGGLVQAGGSLRLSCAASGRIFDYYAMGWYRQEAGKERELVARITSGGTTNYADSVKGRFTISRDNAKNTVYLQMNSLKPEDTAVYYCNAQDYSDPLQMDYWGQCTQVTVSS	low polyreactivity
QVQLVESGGGLVQAGGSLRLSCAASGSTFSPYAMGWYRQAPGKERELVAAINYSSGSTYYADSVKGRFTISRDNAKNTVYLQMNSLKPEDTAVYYCANGWYAGYPYDYWGQGTQVTVSS	low polyreactivity

Sequence	polyreactivity (PSR sort gate)
QVQLVESGGGLVQAGGSLRLSCAASGITFLVYAMGWYRQAPGKERELVAAISADAGGTYYADSVKGRFTISRDNAKNTVYLQMNSLKPEDTAVYYCNVDGRSDGDDYWGQGTQVTVSS	low polyreactivity
QVQLVESGGGLVQAGGSLRLSCAASGRIFAGYPMGWYRQAPGKERELVATITRGGSTNYADSVKRPFTISRDNAKYTVYLQMNSLKPEDTAVYYCNADPGGRYPRRGYAHEGDYWGQGTQVTVSS	low polyreactivity
QVQHVETGGGLVQAGGSLRLSCAASGLAFAMGWYSQAPGTERELVASITGSGDSTYYADSVKGRFTISRDNAKNTVYLQMNSQKPEDTAVYYCGARTYYNYAPRYYYWGQGTQVTVSS	low polyreactivity
QVQLVESGGGLVQAGGSLRLSCAASGSIFQSNAMGWDRQAPGKERELVAAISSSGVRTYYADSVKGRFTISRDNAKNTVYLQMNSLKPEDTAVYYCATGWYYAGGPTYEYYYWGQGTQVTVSS	low polyreactivity
QVQLVESGGGLVQAGGSLRLSCAASGRIFSYYAMGWYRQAPGKERELVATISGSGGSTYYADSVKGRFTISRDNAKNTVYLQMNSLKPEDTAVYYCAATGFIFRGRVRAIPRRYNYWGQGTQVTVSS	high polyreactivity
QVQLVESGGGLVQAGGSLRLSSSASGGIFRSYAMGWYRQAPGKERELVATITDRGGSTYYADSVKGRFTISRDNAKNTVYLQMNSLKPEDTAVYYCAAELVNRLWYRVVHFDYWGQGPQVTVSS	low polyreactivity
QVQLVESGGGLVQAGGSLRLSCAASGFIFGVYAMGWYRQAPGKEREFVAAISWTGGSTSYADSVKGRFTISRDNAKNTVYLQMNSLKPEDTAVYYCARRRSYKRRFDYWGQGTQVTVSS	low polyreactivity
QVQLVESGGCLVQAGGSLRLTCAASGRTFYRYAMGWSRQAPRKERELVAAITTSGGSTYYADSVKGRFTISRDNAMTTVFLQKNSLNPDDTEVYYCAATYYGYHIRDDYWGQGTQVTVSS	low polyreactivity
QVQLVESCGGLVQAGGSLRLSCPASGSIFHVNVMGCYRQEPGKERELVAAITYSGGATYYADSVKGRFTISRDNAKNTVYLQMNSLKPEDTAVYYCAAYPYWFFPHYDSWGQGTLVTVSS	low polyreactivity
QVQLVESGGGLVQAGGSLRLSCAPSGLIFYGYAMGWYRQAPGKERELVAAISCSGGRTYYADSVKGRFTISRDNAKNTVYLQMNSLKPEDTAVYYCNVRNRYRPYLPFWPDDYWGQGTQVTVSS	high polyreactivity
QVQLVESGGGLVQAGGSLRLSCAASGRIFSYYTMGWYRQAPGKERELVAAISSGGSTNYADSVKGRFTISRDNAKNTVYLQMNSLKPEDTAVYYCAVRSGRRNYDRPAFGYWGQGTQVTVSS	high polyreactivity
QVHHVESGGGLVQAGGSLRLSCAASGFIIPYYAMGWYRPAPGKERELVAAISWSGSNTYYADSVKGRFTISRDNAKNTVYLQMNSLKPEDTAVYYCAARYSVYYFVQRNGRYGYWGQGTQVTVSS	high polyreactivity
QVQLVESGGGLVQAGGSRRLSCAASGSTFEYNAMGWYRQAPGKERELVASSTNYADSVKGRFTISRDNAKNTVYLPMNSLKPEDTAVYYCAREQGVNRNHDYWGQGTQVTVSS	low polyreactivity
QVHLVQSGGGLVQAGGSLRLSCAASGSIYVAYEMGWYRQAPGKERELVAAINFDGTSTYYADSVKGRFTISRDNAKNTVYLQMNSLKPEDTAVYYCNKRVSPTYKGQYDYWGQGTQVTVSS	low polyreactivity
QVQLVESGGGLVQAGGSLRLSCAASGSTFAAYVMGWYRQAPGKERELVAAISTSGGGTYYADSVKGRFTISRDTAKNTVYLQMNSLKPEDTAVYYCAADYGSGSVSYDYWGQGTQVTVSS	low polyreactivity
QVQLVESGGGLVQAGGSLRLRCAASGITLLNYAMGWYRQAPWKERELVAAISWSGGRTYYADSVKGRFTMSRDNAKNTDYLHMNSLNPQDTAVYYCAAARGVNSYGYWGQGTQVTVSS	high polyreactivity
QVQLVESGGGLVQAGGSLRLSCAASGSIFWLYAMGWYRQATGKERELVAAINWTGGSTNYADSVKGRFTISRDNAKNTVYLQMNSLKPEDTAVYFCAAEGVPDALDRVYWGQGTQVTVSS	low polyreactivity
QVQLVESGGGLVQSGGSLRLSCAASGRISYYYAMGWYRQAPGKERELVARISKSGGSTYYADSVKGRFTISRDNAKNTVYLQMNSLKPVVTAVYFCAARWKTGYNYWGEGTQVTVSS	high polyreactivity
QVQLVESGGGIVQAGGSLRLSCAASGTFVYYAMVMYRQPPGKERELVAGISDGSSTNYADSVKGRFTISRDNAKNTVYLQMNSLKPEDTAVYYCAKRYYSSGREHGYWGQGTQVTVSS	low polyreactivity
QVQLVESGGGLVQAGGSLRLSCAASGRTFRYYAMGWYRQPPGKERELVAAISISGGNTYYADSVKGRFTISRDNAKNTVYLQMNSLKPEDTAVYYCAAAGRGSGYDYWGQGTQVTVSS	high polyreactivity
QVQLVESGGGLVQAGGSLRLSCAASGSIFDYNAMGWYRQAPGKVRELVAAITGSGGSTYYADSVKGRFTISRDNAKNTVYLQMNSLTAEDTAVYYCAAPVDYRRYEYEYWGQGTQVTVSS	low polyreactivity
